Columns and labels:
[1] = molecular target: T1, biotinylated recombinant human CEACAM5 (human, UniProt P06731 35-685, biotin on the C-terminal Avitag); test: ELISA; biotinylated recombinant protein on streptavidin plate; bivalent mAb titrated
T1 construct: also called CD66e; not shown: C-terminal Avitag plus hexa-histidine tag, human Fc or mouse Fc
T1 sequence: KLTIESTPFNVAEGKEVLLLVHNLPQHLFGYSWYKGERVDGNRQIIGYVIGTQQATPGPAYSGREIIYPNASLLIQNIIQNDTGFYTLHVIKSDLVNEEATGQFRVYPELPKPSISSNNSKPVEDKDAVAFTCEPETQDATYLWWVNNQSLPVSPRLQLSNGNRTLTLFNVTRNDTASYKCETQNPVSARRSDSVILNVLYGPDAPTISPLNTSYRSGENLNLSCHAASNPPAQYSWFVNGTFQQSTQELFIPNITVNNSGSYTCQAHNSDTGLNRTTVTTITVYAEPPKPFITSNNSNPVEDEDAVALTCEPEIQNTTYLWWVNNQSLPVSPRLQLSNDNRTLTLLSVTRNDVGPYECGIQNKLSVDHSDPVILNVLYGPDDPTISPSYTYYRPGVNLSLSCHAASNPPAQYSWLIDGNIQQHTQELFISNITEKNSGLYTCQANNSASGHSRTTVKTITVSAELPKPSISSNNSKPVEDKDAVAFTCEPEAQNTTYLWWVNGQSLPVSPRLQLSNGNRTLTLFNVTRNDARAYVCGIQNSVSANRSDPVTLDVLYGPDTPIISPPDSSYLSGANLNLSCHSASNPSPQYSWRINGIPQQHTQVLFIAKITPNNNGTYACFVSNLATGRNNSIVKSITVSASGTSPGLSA

[2] = molecular target: T2, recombinant cynomolgus monkey CEACAM5 (cynomolgus monkey (macaca fascicularis)); test: as above
T2 construct: also called cyno CEACAM5; cynomolgus CEACAM5

[3] = molecular target: T3, human CEACAM5 expressed on MKN-45 wt cells (human, UniProt P06731 35-702); test: flow cytometry on MKN-45 wt cells (express CEACAM5 and CD47)
T3 construct: MKN-45 cells also express CD47 and CEACAM6; also called CEACAM5 on MKN45
T3 sequence: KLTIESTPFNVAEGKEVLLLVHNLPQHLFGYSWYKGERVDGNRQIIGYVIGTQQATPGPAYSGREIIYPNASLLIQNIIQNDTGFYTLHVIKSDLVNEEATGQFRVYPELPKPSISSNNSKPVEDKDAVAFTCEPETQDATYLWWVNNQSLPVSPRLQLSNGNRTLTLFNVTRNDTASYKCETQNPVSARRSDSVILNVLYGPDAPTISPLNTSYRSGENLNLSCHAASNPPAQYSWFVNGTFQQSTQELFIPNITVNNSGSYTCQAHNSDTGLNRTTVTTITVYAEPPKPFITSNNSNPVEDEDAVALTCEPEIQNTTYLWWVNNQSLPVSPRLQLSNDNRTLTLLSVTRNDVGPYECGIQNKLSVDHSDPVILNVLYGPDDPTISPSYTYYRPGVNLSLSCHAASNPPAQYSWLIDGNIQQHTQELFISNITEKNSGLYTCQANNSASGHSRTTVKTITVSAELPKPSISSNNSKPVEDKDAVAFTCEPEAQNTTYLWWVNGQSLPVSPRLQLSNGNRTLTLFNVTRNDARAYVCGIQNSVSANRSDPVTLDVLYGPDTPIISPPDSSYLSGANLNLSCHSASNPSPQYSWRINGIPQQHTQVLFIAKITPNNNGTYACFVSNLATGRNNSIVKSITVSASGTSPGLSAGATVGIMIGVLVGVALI

Binder | EC50 [1] [nM] | EC50 [2] [nM] | EC50 [3] [nM] | Emax (MFI) [3] [MFI]
AC43 (antibody, human IgG1, kappa, V domains shown, Bivalent IgG1 mAb; 6 carries the IgG1 Fc) VH: not shown VL: DIQMTQSPSSLSASVGDRVTITCQASQNIPRTINWYQQKPGKAPKLLIYDISNLETGVPSRFSGSGSGTDFTFTISSLQPEDIATYYCQQVGLNPELTTFGQGTKVEIKR | 0.08 | 0.7 | – | –
AC41 (antibody, human IgG1, kappa, V domains shown, Bivalent IgG1 mAb; 6 carries the IgG1 Fc) VH: not shown VL: DIQMTQSPSSLSASVGDRVTITCQASQEIAATLNWYQQKPGKAPKLLIYNYSTLETGVPSRFSGSGSGTDFTFTISSLQPEDIATYYCQQVGLNPENTTFGQGTKVEIKR | 0.3 | 0.6 | – | –
AC42 (antibody, human IgG1, kappa, V domains shown, Bivalent IgG1 mAb; 6 carries the IgG1 Fc) VH: not shown VL: DIQMTQSPSSLSASVGDRVTITCQASQRIARTLNWYQQKPGKAPKLLIYNFSALETGVPSRFSGSGSGTDFTFTISSLQPEDIATYYCQQVGLDPNLTTFGQGTKVEIKR | 0.1 | 0.6 | – | –
AC45 (antibody, human IgG1, lambda, V domains shown, Bivalent IgG1 mAb; 6 carries the IgG1 Fc) VH: not shown VL: QSVLTQPPSASGTPGQRVTISCSGSSSNIVGVGVNWYQQLPGTAPKLLIYSYNKRPSGVPDRFSGSKSGTSASLAISGLQSEDEADYYCAAYDADMIVPAPVFGGGTKLTVLG | 0.1 | 0.03 | – | –
AC44 (antibody, human IgG1, lambda, V domains shown, Bivalent IgG1 mAb; 6 carries the IgG1 Fc) VH: not shown VL: QSVLTQPPSASGTPGQRVTISCSGSSSNIVGVGVNWYQQLPGTAPKLLIYSYNKRPSGVPDRFSGSKSGTSASLAISGLQSEDEADYYCAAYDFLPVLPAPVFGGGTKLTVLG | 0.09 | 0.07 | – | –
AC46 (antibody, human IgG1, lambda, V domains shown, Bivalent IgG1 mAb; 6 carries the IgG1 Fc) VH: not shown VL: QSVLTQPPSASGTPGQRVTISCSGSSSNIVGVGVNWYQQLPGTAPKLLIYSYNKRPSGVPDRFSGSKSGTSASLAISGLQSEDEADYYCAAYDFSLLLPAPVFGGGTKLTVLG | 0.07 | 0.04 | – | –
K2AC58 (bispecific antibody, human IgG1, kappa, lambda) heavy: not shown light 1: QSVLTQPPSVSGAPGQRVTISCTGSSSNIGVAHDVHWYQQLPGTAPKLLIYDYSERPSGVPDRFSGSKSGTSASLAITGLQAEDEADYYCQSWDNGPNGLVWVFGGGTKLTVLGQPKAAPSVTLFPPSSEELQANKATLVCLISDFYPGAVTVAWKADSSPVKAGVETTTPSKQSNNKYAASSYLSLTPEQWKSHRSYSCQVTHEGSTVEKTVAPTECS light 2: not shown | – | – | 20 | 300000
K2AC59 (bispecific antibody, human IgG1, kappa, lambda) heavy: not shown light 1: QSVLTQPPSVSGAPGQRVTISCTGSSSNIGVAHDVHWYQQLPGTAPKLLIYDYSERPSGVPDRFSGSKSGTSASLAITGLQAEDEADYYCQSWDNSENGLIYVFGGGTKLTVLGQPKAAPSVTLFPPSSEELQANKATLVCLISDFYPGAVTVAWKADSSPVKAGVETTTPSKQSNNKYAASSYLSLTPEQWKSHRSYSCQVTHEGSTVEKTVAPTECS light 2: not shown | – | – | 26 | 400000
AC54 (antibody, human IgG1, lambda, V domains shown, Bivalent IgG1 mAb; 6 carries the IgG1 Fc; also called CEACAM5 mAb AC54) VH: not shown VL: QSVLTQPPSVSGAPGQRVTISCTGSSSNIHDVGYVHWYQQLPGTAPKLLIYGASGRPSGVPDRFSGSKSGTSASLAITGLQAEDEADYYCQSYDTRQVVPTPVFGGGTKLTVLG | 0.03 | 0.02 | – | –
AC42K2 H-CL1 (bispecific antibody, human IgG1, kappa, lambda, CEACAM5xCD47 κλ body, IgG1, common heavy chain; CEACAM arm light chain fully kappa, CD47 arm light chain hybrid) heavy: not shown light 1: not shown light 2: DIQMTQSPSSLSASVGDRVTITCRASQSISSYLNWYQQKPGKAPKLLIYAASSLQSGVPSRFSGSGSGTDFTLTISSLQPEDFATYYCQQMHPRAPKTFGGGTKLTVLGQPKAAPSVTLFPPSSEELQANKATLVCLISDFYPGAVTVAWKADSSPVKAGVETTTPSKQSNNKYAASSYLSLTPEQWKSHRSYSCQVTHEGSTVEKTVAPTECS | – | – | 129 | 1.84e+06

Next, values leading:

EC50 [1] [nM] | EC50 [2] [nM] | EC50 [3] [nM] | Emax (MFI) [3] [MFI] | Binder
0.013 | 0.06 | – | – | AC60 (antibody, human IgG1, kappa, V domains shown, Bivalent IgG1 mAb; 6 carries the IgG1 Fc; 167 is the one used in the embodiments) VH: not shown VL: DIQMTQSPSSLSASVGDRVTITCQASQNIPRTINWYQQKPGKAPKLLIYDISNLETGVPSRFSGSGSGTDFTFTISSLQPEDIATYYCQQVGLNWDDRAFGQGTKVEIKR
0.008 | 0.02 | – | – | AC61 (antibody, human IgG1, kappa, V domains shown, Bivalent IgG1 mAb; 6 carries the IgG1 Fc) VH: not shown VL: DIQMTQSPSSLSASVGDRVTITCQASQNIPRTINWYQQKPGKAPKLLIYDISNLETGVPSRFSGSGSGTDFTFTISSLQPEDIATYYCQQVTLDPEEMTFGQGTKVEIKR
0.012 | 0.01 | – | – | AC62 (antibody, human IgG1, kappa, V domains shown, Bivalent IgG1 mAb; 6 carries the IgG1 Fc) VH: not shown VL: DIQMTQSPSSLSASVGDRVTITCQASQNIPRTINWYQQKPGKAPKLLIYDISNLETGVPSRFSGSGSGTDFTFTISSLQPEDIATYYCQQVTLEPELTTFGQGTKVEIKR
0.016 | 0.02 | – | – | AC63 (antibody, human IgG1, kappa, V domains shown, Bivalent IgG1 mAb; 6 carries the IgG1 Fc) VH: not shown VL: DIQMTQSPSSLSASVGDRVTITCQASQNIPRTINWYQQKPGKAPKLLIYDISNLETGVPSRFSGSGSGTDFTFTISSLQPEDIATYYCQSVTLWPELTTFGQGTKVEIKR
0.016 | 0.03 | – | – | AC64 (antibody, human IgG1, kappa, V domains shown, Bivalent IgG1 mAb; 6 carries the IgG1 Fc) VH: not shown VL: DIQMTQSPSSLSASVGDRVTITCQASQNIPRTINWYQQKPGKAPKLLIYDISNLETGVPSRFSGSGSGTDFTFTISSLQPEDIATYYCQQVTLEPEELTFGQGTKVEIKR
0.014 | 0.03 | – | – | AC65 (antibody, human IgG1, kappa, V domains shown, Bivalent IgG1 mAb; 6 carries the IgG1 Fc) VH: not shown VL: DIQMTQSPSSLSASVGDRVTITCQASQNIPRTINWYQQKPGKAPKLLIYDISNLETGVPSRFSGSGSGTDFTFTISSLQPEDIATYYCGSVTLNPELTTFGQGTKVEIKR
0.012 | 0.01 | – | – | AC66 (antibody, human IgG1, kappa, V domains shown, Bivalent IgG1 mAb; 6 carries the IgG1 Fc) VH: not shown VL: DIQMTQSPSSLSASVGDRVTITCQASQNIPRTINWYQQKPGKAPKLLIYDISNLETGVPSRFSGSGSGTDFTFTISSLQPEDIATYYCQQVTLDPEENTFGQGTKVEIKR
0.03 | 0.06 | – | – | AC47 (antibody, human IgG1, lambda, V domains shown, Bivalent IgG1 mAb; 6 carries the IgG1 Fc) VH: not shown VL: QSVLTQPPSASGTPGQRVTISCSGSSSNINGVGVNWYQQLPGTAPKLLIYGFNSRPSGVPDRFSGSKSGTSASLAISGLQSEDEADYYCAAYDMSTYVPAPVFGGGTKLTVLG
0.05 | 0.04 | – | – | AC48 (antibody, human IgG1, lambda, V domains shown, Bivalent IgG1 mAb; 6 carries the IgG1 Fc) VH: not shown VL: QSVLTQPPSASGTPGQRVTISCSGSSSNINGVGVNWYQQLPGTAPKLLIYEFNKRPSGVPDRFSGSKSGTSASLAISGLQSEDEADYYCAAYDAARYVPAPVFGGGTKLTVLG
0.03 | 0.02 | – | – | AC52 (antibody, human IgG1, lambda, V domains shown, Bivalent IgG1 mAb; 6 carries the IgG1 Fc) VH: not shown VL: QSVLTQPPSVSGAPGQRVTISCTGSSSNIHDVGYVHWYQQLPGTAPKLLIYGASGRPSGVPDRFSGSKSGTSASLAITGLQAEDEADYYCQSYDTKREFPTPVFGGGTKLTVLG
0.03 | 0.02 | – | – | AC53 (antibody, human IgG1, lambda, V domains shown, Bivalent IgG1 mAb; 6 carries the IgG1 Fc) VH: not shown VL: QSVLTQPPSVSGAPGQRVTISCTGSSSNIHDVGYVHWYQQLPGTAPKLLIYGASGRPSGVPDRFSGSKSGTSASLAITGLQAEDEADYYCQSYDGRAVFPTPVFGGGTKLTVLG
0.03 | 0.02 | – | – | AC55 (antibody, human IgG1, lambda, V domains shown, Bivalent IgG1 mAb; 6 carries the IgG1 Fc) VH: not shown VL: QSVLTQPPSVSGAPGQRVTISCTGSSSNIHDVGYVHWYQQLPGTAPKLLIYGASGRPSGVPDRFSGSKSGTSASLAITGLQAEDEADYYCQSYDTSAVFPTPVFGGGTKLTVLG
0.02 | 0.02 | – | – | AC56 (antibody, human IgG1, lambda, V domains shown, Bivalent IgG1 mAb; 6 carries the IgG1 Fc) VH: not shown VL: QSVLTQPPSVSGAPGQRVTISCTGSSSNIINNSYVHWYQQLPGTAPKLLIYAPSNRPSGVPDRFSGSKSGTSASLAITGLQAEDEADYYCQSYDTTGVMPTPVFGGGTKLTVLG

— patent EP3831849A1 (LamKap Bio beta AG, dated 2021)
